Laboratory results as given in article PMC3445047.

Substrate: CC(=O)N[C@H]1[C@H](Oc2ccc([N+](=O)[O-])cc2)O[C@H](CO)[C@@H](O)[C@@H]1O
Test: purified protein
Details: pH 5.5, 30 °C

B1: OfHex2 (Ostrinia furnacalis) (protein)
chain: IYNNNPGPKYPPTKGEVWPKPQYQKLERYYFTVNTSAFKIKATNHTCPILAKAIERYSFIMRNTFNLDLNRKPKTSRHRLPRETNSEDPYYQGLLKELDIELISPCEEYPYFNMDESYELTISTTAKLLSSSIWGILRGLESWSHLLYLTDDKDGVSIDICVNRTHIADFPRYAHRGLLLDTGRHFISMSNILKTLDAMAMNKLNVFHWHIVDDQSFPYQSEKFPDLSGKGAFDPSLVYTKDDIARVVQYATERGIRVLPEFDVPGHTRSWGEAFPNVLTECFSDGKVVGVGPMNPTVNTTYKLFQELMEEVQEWFPDKYFHIGGDEVQFDCWESNPDLQQYMKDHHMTATQLHALFMKNVIPLLGNNTKPIVWQEVFDVGVPLSSDTIIHVWKNGWVEEMVKILKAGHRLIFSASWYLDHLKTGGDWEDMYMADPRLMVNLVDDTAPLDNIVGGEACMWGEVVDDTNVINRVWPRTSAAAERLWSAGLASNSLERNVRLSILDKARHRIEEHACRMRRRAINAQPPNGPGFCVGAKLF
- Km: 0.463 ± 0.027 mM
- kcat: 151 ± 6.21 s⁻¹
- kcat/Km: 326000 M⁻¹ s⁻¹
